Reference: patent US20180256699A1 (University of Texas, published 2018)
Changes are numbered by the printed parent chain. Where two headings read alike, the source gives them in different places.

Experiments:
[1] = biological target: T1, Bordetella adenylate cyclase toxin (ACT), full-length, acylated (Bordetella pertussis, UniProt J7QLC0 1-1706); experiment: cell-based or functional assay
[2] = biological target: T2, RTX751, RTX domain of ACT, residues 751-1706, non-acylated (Bordetella pertussis, UniProt J7QLC0 751-1706); experiment: method and antibody format not stated
T2 construct: Expressed without CyaC

[3] = biological target: T3, RTX985, RTX domain of ACT, residues 985-1706 (Bordetella pertussis, UniProt J7QLC0 985-1706)
[4] = biological target: T2, RTX751, RTX domain of ACT, residues …
[5] = biological target: T4, HP1096*, hydrophobic domain of ACT, residues 399-1096, MBP fusion, acylated (Bordetella pertussis, UniProt J7QLC0 399-1096); experiment: ELISA: HP1096* coated equimolar with ACT, M2B10 IgG titrated from 1 nM, detected with anti-human Fc-HRP
[6] = biological target: T5, CAT400, catalytic domain of ACT, residues 1-400 (Bordetella pertussis, UniProt J7QLC0 1-400); experiment: ELISA: CAT400 coated equimolar with ACT, M2B10 IgG titrated from 1 nM, detected with anti-human Fc-HRP
Bpp-RTX751 = biological target: T6, Bpp-RTX751 (Bordetella parapertussis); experiment: ELISA: Bpp-RTX751 coated, M2B10 IgG titrated
T6 construct: fragment

[7] = biological target: T2, RTX751, RTX domain of ACT, residues …; experiment: ELISA: Bp-RTX751 coated, M2B10 IgG titrated
[8] = biological target: T1, Bordetella adenylate cyclase toxin …; experiment: ELISA: ACT coated, M2B10 IgG titrated from 1 nM, detected with anti-human Fc-HRP
Br-RTX751 = biological target: T7, Br-RTX751 (Bordetella bronchiseptica); experiment: ELISA: Br-RTX751 coated, M2B10 IgG titrated
T7 construct: fragment

[9] = biological target: T5, CAT400, catalytic domain of ACT, …; experiment: ELISA: CAT400 coated equimolar with ACT, M1H5 IgG titrated from 1 nM, detected with anti-human Fc-HRP
[10] = biological target: T4, HP1096*, hydrophobic domain of ACT, …; experiment: ELISA: HP1096* coated equimolar with ACT, M1H5 IgG titrated from 1 nM, detected with anti-human Fc-HRP
[11] = biological target: T5, CAT400, catalytic domain of ACT, …; experiment: ELISA, murine αMβ2 integrin coated, domain serially diluted
Description: (§1) To assess non-specific binding, control wells were not coated with αMβ₂ receptor but blocked with M-PBST only.
(§2) Recombinant murine αMβ₂ integrin (R&D Systems) was coated at 1 μg/mL in PBS at 4° C. overnight, and blocked with M-PBST.

[12] = biological target: HP1096, hydrophobic domain of ACT, residues 399-1096, MBP fusion, non-acylated (Bordetella pertussis, UniProt J7QLC0 399-1096); experiment: as above
Description: as §1, §2

[13] = biological target: T3, RTX985, RTX domain of ACT, residues …; experiment: as above
Description: as §1, §2

[14] = biological target: T4, HP1096*, hydrophobic domain of ACT, …; experiment: as above
Description: as §1, §2

B1: M1E2 single-chain antibody fragment (scAb) (scFv, not shown: a dimerising Fc or GST)
scFv: DIVMTQSPAIMSASLGERVTMTCTASSSVSSSYLHWYQQKPGSSPKLWIYSTSNLASGVPARFSGSGSGTSYSLTISSMEAEDAATYYCHQYHRSPPTFGGGTKLEIKRGGGGGGSGGGGSGGGGSGGGGSQVQLKQSGAELVRPGTSVKVSCKASGYAFTNYLIEWVKQRPGQGLEWIGVINPGIGNTNYNEKFKGKATLTADKSSSTVYMQLSSLTSDDSAVYFCARGLNYGSSQHWYFDVWGAGTTVTVSS
[1]
  reduction of intracellular cAMP level in J774A.1 cells, scAb at 160-fold molar excess over ACT: > 90%

B2: M1H1 single-chain antibody fragment (scAb) (scFv, not shown: a dimerising Fc or GST)
scFv: B1 scFv with I107L, K136Q, S206F, V210A, Y211S, T249S
[1]
  reduction of intracellular cAMP level in J774A.1 cells, scAb at 160-fold molar excess over ACT: > 90%

B3: M2B10 single-chain antibody fragment (scAb) (scFv)
scFv: B1 scFv with M11L, G101A, Q132E, K136Q, T249S
[1]
  reduction of intracellular cAMP level in J774A.1 cells, scAb at 160-fold molar excess over ACT: > 90%

B4: M2B10 antibody (format not stated) (antibody, V domains shown)
VH: EVQLQQSGAELVRPGTSVKVSCKASGYAFTNYLIEWVKQRPGQGLEWIGVINPGIGNTNYNEKFKGKATLTADKSSSTVYMQLSSLTSDDSAVYFCARGLNYGSSQHWYFDVWGAGTSVTVSS
VL: DIVMTQSPAILSASLGERVTMTCTASSSVSSSYLHWYQQKPGSSPKLWIYSTSNLASGVPARFSGSGSGTSYSLTISSMEAEDAATYYCHQYHRSPPTFGAGTKLEIKR
[1]
  IC50, J774A.1 macrophage cell line intoxication assay with 125 ng/mL ACT (0.7 nM): 6 nM
[2]
  Kd: ~1.2 nM

B5: M2C2 antibody (format not stated) (antibody, V domains shown)
VH: QVQLQQSGPELGKPGASVKISCKASGYLFTGYNIYWVKQSHRKSLEWIGYINPYNGDTSYNQKSKGKATLTVDRSSSTAYMHLNSLTSEDSAIYFCARGYYVRPLDYWGQGTTLTVSS
VL: B4 VL with M4L, L11M, A101G
[1]
  IC50, J774A.1 macrophage cell line intoxication assay with 125 ng/mL ACT (0.7 nM): 8.1 nM
[2]
  Kd: ~1.5 nM

B6: M2C2 single-chain antibody fragment (scAb) (scFv, not shown: a dimerising Fc or GST)
scFv: DIVLTQSPAIMSASLGERVTMTCTASSSVSSSYLHWYQQKPGSSPKLWIYSTSNLASGVPARFSGSGSGTSYSLTISSMEAEDAATYYCHQYHRSPPTFGGGTKLEIKRGGGGGGSGGGGSGGGGSGGGGSQVQLQQSGPELGKPGASVKISCKASGYLFTGYNIYWVKQSHRKSLEWIGYINPYNGDTSYNQKSKGKATLTVDRSSSTAYMHLNSLTSEDSAIYFCARGYYVRPLDYWGQGTTLTVSS
[1]
  reduction of intracellular cAMP level in J774A.1 cells, scAb at 160-fold molar excess over ACT: > 90%

B7: M1F10 single-chain antibody fragment (scAb) (scFv, not shown: a dimerising Fc or GST)
scFv: DIVMTQSPASLAVSLGQRATISCRASESVGNYGISFTNWYQQKPGQPPKLLIYAASNLESGIPARFSGSGSGTDFTLNIHPVEEEDAATYYCQQSNEDPYTFGGGTKLEIKRGGGGGGSGGGGSGGGGSGGGGSEVKLVESGGDLVKPGGSLKLSCAASGFTFSSYGMSWVRQTPDKRLEWVATISSGGTYTYYPDSVKGRFTISRDNAKNTLYLQMSSLKSEDTAMYYCAREIMRGGGYYFDYWGQGTTLTVSS
[1]
  reduction of intracellular cAMP level in J774A.1 cells, scAb at 160-fold molar excess over ACT: > 90%

B8: M2B10 chimeric IgG1/κ antibody (antibody, V domains shown)
VH: B4 VH
VL: B4 VL
notes: also called M2B10 IgG; not shown: human IgG1 constant domains (IgG-Abvec vector); human kappa constant domain (Igκ-Abvec vector)
[3]
  EC50 (read off the curve): ~0.04 nM
[4]
  EC50 (read off the curve): ~0.04 nM
[5]
  binding result: no binding (tested: 1 nM)
[6]
  binding result: no binding (tested: 1 nM)
Bpp-RTX751
  EC50 (read off the curve): ~0.05 nM
[7]
  EC50 (read off the curve): ~0.05 nM
[8]
  EC50 (read off the curve): ~0.04 nM
Br-RTX751
  EC50 (read off the curve): ~0.05 nM

B9: M1H5 chimeric IgG1/κ antibody (antibody, V domains shown)
VH: EVNLVESGGDLVKPGGSLKLSCAASGFTFSSYGMSWVRQTPDKRLEWVATISSGGTYTYYPDSVKGRFTISRDNAKNTLYLQMSSLKSEDTAMYYCAREIMRGGGYYFDYWSQGTTLTVSS
VL: DIQMIQSTSSLSASLGDRVTISCRASQDISNYLNWYQQKPDGTVKLLIYYTSRLHSGVPSRFSGSGSGTDYSLTISNLEQEDIATYFCQQGNTLPYTFGGGTKLEIKR
notes: also called M1H5 IgG; not shown: human IgG1 constant domains (IgG-Abvec vector); human kappa constant domain (Igκ-Abvec vector)
[9]
  binding result: no binding (tested: 1 nM)
[10]
  binding result: no binding (tested: 1 nM)

B10: Recombinant soluble murine αMβ2 integrin (R&D Systems) (receptor)
chain 1: FNLDTEHPMTFQENAKGFGQNVVQLGGTSVVVAAPQEAKAVNQTGALYQCDYSTSRCHPIPLQVPPEAVNMSLGLSLAVSTVPQQLLACGPTVHQNCKENTYVNGLCYLFGSNLLRPPQQFPEALRECPQQESDIVFLIDGSGSINNIDFQKMKEFVSTVMEQFKKSKTLFSLMQYSDEFRIHFTFNDFKRNPSPRSHVSPIKQLNGRTKTASGIRKVVRELFHKTNGARENAAKILVVITDGEKFGDPLDYKDVIPEADRAGVIRYVIGVGNAFNKPQSRRELDTIASKPAGEHVFQVDNFEALNTIQNQLQEKIFAIEGTQTGSTSSFEHEMSQEGFSASITSNGPLLGSVGSFDWAGGAFLYTSKDKVTFINTTRVDSDMNDAYLGYASAVILRNRVQSLVLGAPRYQHIGLVVMFRENFGTWEPHTSIKGSQIGSYFGASLCSVDMDADGNTNLILIGAPHYYEKTRGGQVSVCPLPRGRARWQCEALLHGDQGHPWGRFGAALTVLGDVNGDKLTDVAIGAPGEQENQGAVYIFYGASIASLSASHSHRIIGAHFSPGLQYFGQSLSGGKDLTMDGLMDLAVGAQGHLLLLRAQPVLRLEATMEFSPKKVARSVFACQEQVLKNKDAGEVRVCLRVRKNTKDRLREGDIQSTVTYDLALDPVRSRIRAFFDETKNNTRRRTQVFGLMQKCETLKLILPDCVDDSVSPIILRLNYTLVGEPLRSFGNLRPVLAMDAQRFFTAMFPFEKNCGNDSICQDDLSITMSAMGLDTLVVGGPQDFNMSVTLRNDGEDSYGTQVTVYYPSGLSYRKDSASQNPLTKKPWFVKPAESSSSSEGHGALKSTTWNINHPIFPANSEVTFNVTFDVDSHASFGNKLLLKAIVASENNMSRTHKTKFQLELPVKYAIYMIVTSDESSIRYLNFTASEMTSKVIQHQYQFNNLGQRSLPVSVVFWIPVQINNVTVWDHPQVIFSQNLSSACHTEQKSPPHSNFRDQLERTPVLNCSVAVCKRIQCDLPSFNTQEIFNVTLKGNLSFDWYIKTSHGHLLLVSSTEILFNDSAFALLPGQESYVRSKTETKVEPYEVHN
chain 2: QECTKYKVSSCRDCIQSGPGCSWCQKLNFTGPGEPDSLRCDTRAQLLLKGCPADDIMDPRSIANPEFDQRGQRKQLSPQKVTLYLRPGQAAAFNVTFRRAKGYPIDLYYLMDLSYSMLDDLNNVKKLGGDLLQALNEITESGRIGFGSFVDKTVLPFVNTHPEKLRNPCPNKEKACQPPFAFRHVLKLTDNSNQFQTEVGKQLISGNLDAPEGGLDAIMQVAACPEEIGWRNVTRLLVFATDDGFHFAGDGKLGAILTPNDGRCHLEDNMYKRSNEFDYPSVGQLAHKLSESNIQPIFAVTKKMVKTYEKLTEIIPKSAVGELSDDSSNVVQLIKNAYYKLSSRVFLDHSTLPDTLKVTYDSFCSNGASSIGKSRGDCDGVQINNPVTFQVKVMASECIQEQSFVIRALGFTDTVTVQVRPQCECQCRDQSREQSLCGGKGVMECGICRCESGYIGKNCECQTQGRSSQELERNCRKDNSSIVCSGLGDCICGQCVCHTSDVPNKEIFGQYCECDNVNCERYNSQVCGGSDRGSCNCGKCSCKPGYEGSACQCQRSTTGCLNARLVECSGRGHCQCNRCICDEGYQPPMCEDCPSCGSHCRDNHTSCAECLKFDKGPFEKNCSVQCAGMTLQTIPLKKKPCKERDSEGCWITYTLQQKDGRNIYNIHVEDSLECVKGPN
notes: extracellular domain; also called αMβ2 receptor; soluble αMβ2 integrin
[11]
  binding result: no binding
[12]
  binding result: no binding
[13]
  binding result: no binding
[14]
  binding result: no binding
